From patent US7452534

How the values were obtained:
human CD4 on cells [1] = target: T1, human CD4 on cells (human, UniProt P01730 26-458); experiment: cell-based or functional assay
[2] = target: T2, recombinant human soluble CD4 (human, UniProt P01730 26-394, limits assumed); experiment: SPR (BIAcore), soluble CD4 on immobilized mAb, 25 C
T2 construct: Soluble form; also called sCD4
Experimental: (§1) The stoichiometry of binding of soluble CD4 to immobilized mAbs can be determined by saturation binding experiments on BIAcore (Pharmacia). Data for the association and dissociation phases of the SPR progress (FIG. 19) were analyzed directly using the integrated form of the rate equations as described in O'Shannessey et al., Anal. Biochem., 212: 467-468 (1993). […] Thus, the stoichiometry of CD4 binding was the same for all mAbs and close to the theoretical value of 2.0.

[3] = target: T2, recombinant human soluble CD4; experiment: SPR
[4] = target: T2, recombinant human soluble CD4; experiment: SPR (BIAcore) saturation binding of soluble CD4 to immobilized mAb
Experimental: as §1

human CD4 on cells [5] = target: T1, human CD4 on cells; experiment: cell-based or functional assay; remark: listed apart in the source
[6] = target: T3, chimpanzee CD4 on lymphocytes (chimpanzee, UniProt P16004 26-458); experiment: flow cytometry of blood of chimpanzees dosed at 1.5 mg/kg
T3 construct: whole, on cells
Experimental: Six chimpanzees were examined for depletion of CD4^+ T cells and/or modulation of the CD4 receptor from the cell surface after infusions of increasing doses of antibody CE9γ4PE, up to 15 mg/kg. Peripheral blood samples were taken from each chimpanzee three weeks and two weeks prior to the start of the study to establish baseline levels for CD4^+ T cells. In addition to CD4^+ cells, CD3^+ and CD8^+ cell levels were also measured by flow cytometry. […] By subtraction of CD8^+ counts from total CD3^+ counts a theoretical value for the number of CD4^+ T cells could be calculated. By comparing this value with the CD4^+ cells measured suing OKT4, CD4 receptor modulation could be distinguished from CD4^+ cell depletion.

human C1q = target: T4, human C1q (human, UniProt P02745 23-245; P02746 28-253; P02747 29-245); experiment: C1q binding (summary table of effector functions)
T4 construct: also called Clq
T4 sequence (P02745 23-245 limits assumed, chain 1 of 3): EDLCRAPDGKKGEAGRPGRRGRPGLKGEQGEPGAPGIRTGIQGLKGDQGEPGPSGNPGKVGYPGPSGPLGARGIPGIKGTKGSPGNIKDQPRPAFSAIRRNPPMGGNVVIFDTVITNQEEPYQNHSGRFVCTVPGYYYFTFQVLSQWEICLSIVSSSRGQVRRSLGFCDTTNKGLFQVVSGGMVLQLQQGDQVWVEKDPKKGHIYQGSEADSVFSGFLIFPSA
T4 sequence (P02746 28-253 limits assumed, chain 2 of 3): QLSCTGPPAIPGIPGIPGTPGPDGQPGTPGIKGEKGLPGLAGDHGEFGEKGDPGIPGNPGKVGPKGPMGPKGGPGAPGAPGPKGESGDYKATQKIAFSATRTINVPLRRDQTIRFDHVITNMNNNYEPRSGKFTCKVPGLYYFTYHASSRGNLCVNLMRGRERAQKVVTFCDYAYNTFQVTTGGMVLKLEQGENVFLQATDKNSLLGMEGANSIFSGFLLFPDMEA
T4 sequence (P02747 29-245 limits assumed, chain 3 of 3): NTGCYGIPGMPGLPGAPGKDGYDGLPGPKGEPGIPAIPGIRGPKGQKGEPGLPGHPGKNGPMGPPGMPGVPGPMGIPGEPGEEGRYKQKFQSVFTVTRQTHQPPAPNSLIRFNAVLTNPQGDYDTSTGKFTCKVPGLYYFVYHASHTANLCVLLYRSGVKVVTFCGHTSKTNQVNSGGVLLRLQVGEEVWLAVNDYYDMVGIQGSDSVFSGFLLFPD

T3 sequence (P16004 26-458): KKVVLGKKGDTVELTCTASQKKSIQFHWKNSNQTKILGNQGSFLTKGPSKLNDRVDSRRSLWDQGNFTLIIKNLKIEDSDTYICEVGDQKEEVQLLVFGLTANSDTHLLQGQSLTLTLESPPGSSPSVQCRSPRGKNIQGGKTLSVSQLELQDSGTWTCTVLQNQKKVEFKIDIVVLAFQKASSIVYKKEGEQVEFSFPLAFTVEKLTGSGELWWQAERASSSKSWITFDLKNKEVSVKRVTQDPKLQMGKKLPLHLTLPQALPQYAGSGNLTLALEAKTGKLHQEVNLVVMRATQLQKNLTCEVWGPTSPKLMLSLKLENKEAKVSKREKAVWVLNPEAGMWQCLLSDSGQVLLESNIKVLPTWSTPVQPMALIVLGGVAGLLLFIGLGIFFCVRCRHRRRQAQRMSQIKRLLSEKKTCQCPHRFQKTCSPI

Binder | MLR IL-2 Production (IC50) (human CD4 on cells [1]) [µg/mL] | MLR Proliferation (IC50) (human CD4 on cells [1]) [µg/mL] | Kd [2] [nM] | Kd [3] [nM] | BIAcore Stoichiometry [4] [moles CD4/mole mAb] | inhibition of human MLR (proliferation and IL-2 production), IC50 (human CD4 on cells [5]) [µg/mL] | binding result [6] | binding result (human C1q)
CE9.1, monkey/human chimeric anti-CD4 monoclonal antibody (cynomolgus variable domains, human gamma 1 / lambda constant regions) (antibody, domain: gamma 1 constant region; the entries may be DNA and may hold a leader; also called mAb CE9.1; monkey/human recombinant antibody (ATCC No. 69030)) heavy: not shown light: SYELSQPRSVSVSPGQTAGFTCGGDNVGRKSVQWYQQKPPQAPVLVIYADSERPSGIPARFSGSNSGNTATLTISGVEAGDEADYYCQVWDSTADHWVFGGGTRLTVLGQPKAAPSVTLFPPSSEELQANKATLVCLISDFYPGAVTVAWKADSSPVKAGVETTTPSKQSNNKYAASSYLSLTPEQWKSHRSYSCQVTHEGSTVEKTVAPTECS | 0.005 | 0.02 | 0.99 | 1 | 1.56 | 0.01 to 0.03 | – | –
CE9γ4E, chimeric anti-CD4 antibody with human gamma 4 constant domain carrying the E modification (L236E) (antibody, human IgG4, lambda, IgG4 (L236E; 248 Kabat numbering) lambda; also called CE9γ4E(G4E); CE9γE) heavy: not shown light: SYELSQPRSVSVSPGQTAGFTCGGDNVGRKSVQWYQQKPPQAPVLVIYADSERPSGIPARFSGSNSGNTATLTISGVEAGDEADYYCQVWDSTADHWVFGGGTRLTVLGQPKAAPSVTLFPPSSEELQANKATLVCLISDFYPGAVTVAWKADSSPVKAGVETTTPSKQSNNKYAASSYLSLTPEQWKSHRSYSCQVTHEGSTVEKTVAPTECS | 0.01 | 0.02 | 1.43 | – | 1.72 | – | – | –
CE9γ4, chimeric anti-CD4 antibody with human gamma 4 constant domain (antibody, human IgG4, lambda, IgG4 lambda; also called CE9γ4(G4); anti-CD4 (G4, L, Oz-)) heavy: not shown light: SYELSQPRSVSVSPGQTAGFTCGGDNVGRKSVQWYQQKPPQAPVLVIYADSERPSGIPARFSGSNSGNTATLTISGVEAGDEADYYCQVWDSTADHWVFGGGTRLTVLGQPKAAPSVTLFPPSSEELQANKATLVCLISDFYPGAVTVAWKADSSPVKAGVETTTPSKQSNNKYAASSYLSLTPEQWKSHRSYSCQVTHEGSTVEKTVAPTECS | 0.005 | 0.02 | 1.34 | – | 1.61 | – | – | –
CE9γ4PE, chimeric anti-CD4 antibody with human gamma 4 constant domain carrying the P and E modifications (S229P, L236E) (antibody, human IgG4 S228P, lambda, IgG4 (S229P, L236E; 241 and 248 Kabat numbering) lambda, expressed in CHO; also called CE97PE(G4PE); CE9-4PE) heavy: not shown light: SYELSQPRSVSVSPGQTAGFTCGGDNVGRKSVQWYQQKPPQAPVLVIYADSERPSGIPARFSGSNSGNTATLTISGVEAGDEADYYCQVWDSTADHWVFGGGTRLTVLGQPKAAPSVTLFPPSSEELQANKATLVCLISDFYPGAVTVAWKADSSPVKAGVETTTPSKQSNNKYAASSYLSLTPEQWKSHRSYSCQVTHEGSTVEKTVAPTECS | – | 0.02 | 1.09 | – | – | – | binds | no binding
CE9γ4λK, chimeric anti-CD4 antibody with human gamma 4 heavy chain constant domain and human kappa light chain constant region (antibody, also called CE9γ4XK; CE9γ4K) heavy: not shown light: SYELSQPRSVSVSPGQTAGFTCGGDNVGRKSVQWYQQKPPQAPVLVIYADSERPSGIPARFSGSNSGNTATLTISGVEAGDEADYYCQVWDSTADHWVFGGGTRLTVLG | – | – | 1.08 | – | 1.67 | – | – | –
